Source: the NTF2 design screens of Basanta et al. (2020)

Test: protease stability score; higher = more stable; yeast display proteolysis, trypsin and chymotrypsin;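 further: relative to predicted unfolded state with 0 unfolded-like and 1 meaning tenfold more protease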

Sequence	protease stability score
SEERDHARRALNKMWKAIETGDEDTFEKLMDPDVRIEIGDKEIHGRELYVKIWQEMRFHIRRTRITDSKTFNGRVDIEFEEDFEIIVGDKIERYDYRVTFHSLKVNGRWEHSSMRLH	0.202
SEEREDIREIIEILLHHIHTGDWREVTNLMDPNALLVYGDKIFIGREEFHKVIKRHSEEWRIHHVELKDIEVQGNKAHVDGRLDGEIDGRRVTLTTEIIAVKINGRWHVHEIVLK	1.23
SEEREDSKKFLELVLTSWITGDWRQINKNFDPHARSHVGDKEIHGMDHVAHRMNEHLERADHIHFYLEDEHIQGNKIHVDGILQLVINGVDIRMRIRLVVLKINGRWQVHSIEIK	1.14
SEEREEFEHWAKLVVHLLLTGNWEDFVKLLDPDTRFRDEDEETVGREEVEKAVNRLLDRVDHIKSVHIRHLDVINGRAFMHGQLVGHVDGRETHTEVRIKLVVVNGRIKSLQIDYK	1.99
SEEREKAERISRTLFFNFFTGDEDDWNKRADPTDRFIIGDKELVGMEEISKFLKHLRVHHEQLSDLRINLQGDKLHSHLDGYVDIEFNGRRRRTRVIIIIVVFKVNGRWTIEQFEVEFH	1.73
SEERERVRKIHEWLVRFLETGDEESFNHLADPNMRLIVWYNGVNIVFIGRESWREFLRLFREEMRLHRIRVHHVDVQGEKVTSDTRNDGEVNGQRTEFETHVEVVLINGRLKLVLLEFK	2.33
SEERHAVERYTEELARAISTGDEEKRLELLDPHVRYLQGDKHIHGRDEVWRHEHRQMEDLGVTRIEMRIRHIRIFNGRVEIEGEVRIGEFEMHFIIYVLKIDGRWIITQEEYS	0.393
SEERHELERTLKRYQDALITGNEEQMEKLIDPNVRTRIDGVDLIGMELVIEELVEWLDRYPNVRIHSHIHEVRFQGDKADIDSRLHLIFDGQEYRLHTRIHIWKFNGRWVLTHSEID	0.884
SEERHLEELMYKWVRQMIETGDEDLERKLADPHVRSDINGVDLHGREEMIKEIKRLEDWLGIDHREFKTITFINGRIHVHIKLNVNGKDIKSIHIYDVIDGRLKEVSVRFR	1.19
SEERKELKDIADEIFERHLTGDWKTFLRLADPNVRLQVNGKDIHGREEVVRWLNEIRYHHLTIHDRTVVDGVVISDVEEDGQVNGQKSRYRVHYVFVVVDGRFKSIHVTIT	1.3
SEERSRVLHYLSLFIHFLETGDWKALYELMDPDVRIHVGDFELHGRHIFVRHLRDLGIKHVEESIRVRRMILIDGVIHMDGHLERHLIVGDKRVDERHEVHEVILKVDGKWFVHSIHVK	1.14
SEESEHEEIIAEVTLELLATGDWRTLYELFDPNVRVHVGDKRSIGREQFVKIWKEFLEKFKNVVYKFKDIKWINGVVHIHMTLEYNGRRIEVNIHNFVYDGKIEHIHIEFKHL	1.66
SEESEKLERMMRLIMHLLWTGDEETFKRLADPDTRFIYGDFEVHGREDVSRMWIKLLNELRIHSLHVEEVHTIDGRIHAKTEVDGRYNGQHERTKLELIIVIINGRIHTVEIRPK	1.22
SEETEETERVEREISHARLTGDEQFLKEMLDPNTRLLINGVILVGREALEHFVREMRVERVEVKDVRVQGDKLHIDTTSDVHYNGRRWTIKTHLIMVKVDGRWLMESVEFK	1.62
SEETEFAKEMLDIIFNLLRTGDWEYLVRLMDPHVRVIYGDKVTHGRDIIQYMHEHIRIRHLEFRHFDVIGDKINVDGRMEGEVNGRHDKTEMHIILLKINGRWSLHSIEIR	1.39
SEETEHIQKVMKDYIELVLTGDEEKWIHLADPHTRLILLFDGKEIHTHGWDRLIKVWQRIMEELGVDKVEIRMERVRSYGDKAESDVESRYNGRTHETEVTILVIDGRIKMVEVRFH	1.14
SEETEIIERAMKILLEILETGDEDRQRELMDPHYRLLIGDKVFHGREWAIKWAREIRVDRVELEDREIQGEKLLLHGHIHIRVGDKHHTMEVLIIVEKIDGRWRTHSRHVK	0.651
SEETEYLRLAIELILNETRTGDEHTFMENADPDAKLNFNGVHLHGMEEVTRRMHELWEELRIRHFELHDVSHVDGRLYVHIRLDVDVNGQKRTFRSEIVSEKINGKWYYKYMTIV	1.27
SEETKEKHDFVEEWRHFLETGDEHELTRMIDPNVRVIINGQEHHGREAFEEMLKRIDVIHHVVIRKERSINGVIRLNFEVDGVINGRRHRTEFHIIVLKINGRWLIHQISIH	2.04
SEETKNLEHWAKRFEHALETGDEEVLTKLFDPNVRLHFNGVNIHGWELYRKYHQRVDHVHFRIRSVHVYDGRVDMHTEVENRQGDKSHRMDTRLFAIKVNGVWLIESFEVH	0.486
SEEVEEAVTKMRHIWEHFLTGDEDTLKELVDPTVRLEQGDKEYHGRDFYIKYSEHIRRRFKNLKIIERDMKFTVYNGKAQMQFDGELRVGDKSTEVVIFLHMRKIDGRWFIEAERIEIR	1.38
SEEVEHAEKVMRHTVHNIETGDEETWSNLADPNVLFQQGEFNLHGRELMFEWVRKYYEKIKNARIEIEDVRVFDGQIEFDVTWRVGDKHLKVHLHIEVINGRITEVRVDEK	0.98
SEEYENAEKLTHHLTEILQTGDEQKLHELVDPHVKIHVDGVELHGMERYQELVDHWRIDSHTLHDFKIIGDKARVDSRVILTIGDKKERISLRFILVKIDGQWLNHEVEFN	1.79
SEEYKRVKHMFDLWLHALITGDEDLMEELADPHVRHDINGVKNHGWETLIDREREWRIKRIDHRRSDAVNGRMHSDVHIDGIFDGKRHETDVTIHMIVVNGKFKTVEIRYH	1.08
SEFDEASREAHEWFVELSKTGDEHEVKKFFDPNMRIDWNGVELIGRDTASKFFHELRFEHVRMEDVKFIDGVLRLDSHSIVNVNGQRFETRDDIVIEKFNGQWILKSIRVE	1
